Measured values: patent US20240402194A1 (QATAR FOUNDATION FOR EDUCATION SCIENCE AND COMMUNITY …, published 2024)

B1: monoclonal antibody 2A1 (antibody, mouse IgG1, kappa, V domains shown)
VH: QVQLQQPGAELVKPGASVKMSCKASGYTFSSYNLHWVKQTPGQGLEWIGAIYPGNGDTSYNQKFKGKATLTADKSSSTAYMQLSSLTSEDSAVYYCTRRDYYGSRGFAYWGQGTLVTVSA
VL: DIQMNQSPSSLSASLGDTITITCHASQNINVWLSWYQQKPGNIPKLLIYKASNLHTGVPSRFSGSRSGTGFTLTISSLQPEDIATYYCQQGQSFPWTFGGGTKLEIKR
notes: also called mAb 2A1
B2: monoclonal antibody 4B1 produced by the hybridoma 4B1, ATCC Patent Deposit Number PTA-127017 (antibody, mouse IgG1, kappa, V domains shown)
VH: EVKLVESGGGLVQPGGSLKLSCAASGITFSSYTMSWVRQTPEKRLEWVGYISNGGGRTYYPDTVKGRFTISRDNAKNTLYLQMSSLKSEDTAMYYCARQITTAMGYYYAMDYWGQGTSVTVSS
VL: DVVMTQTPLSLPVSLGDQASISCRSSQSLVHSNGNTYLHWYLQKPGQSPKLLISKVSNRFSGVPDRFSGSGSGTDFTLKISRVEAEDLGVYFCSQSTHVPLTFGAGTKLELKR
notes: also called mAb 4B1

Columns and labels:
[1] = molecular target: mouse α-synuclein (WT-α-syn from mouse) (mouse, UniProt O55042 1-140); experiment: method not named in the sentence (Western blot in the same paragraph)
[2] = molecular target: α-synuclein aggregates from mouse (mouse, UniProt O55042 1-140); experiment: filter retardation assay
β-synuclein = β-synuclein (UniProt Q16143 1-134); experiment: Western blot
γ-synuclein = γ-synuclein (UniProt O76070 1-127); experiment: Western blot
γ-synuclein, sequence (O76070 whole entry): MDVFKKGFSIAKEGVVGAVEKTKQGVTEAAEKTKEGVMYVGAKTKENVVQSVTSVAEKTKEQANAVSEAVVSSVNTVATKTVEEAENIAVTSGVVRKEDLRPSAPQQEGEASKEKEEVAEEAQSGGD

β-synuclein, sequence (Q16143 whole entry): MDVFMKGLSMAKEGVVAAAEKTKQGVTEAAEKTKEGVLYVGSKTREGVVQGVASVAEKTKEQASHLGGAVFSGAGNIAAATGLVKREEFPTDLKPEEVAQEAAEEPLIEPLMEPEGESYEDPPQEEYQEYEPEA

| Binder | binding result [1] | binding result [2] | binding result (β-synuclein) | binding result (γ-synuclein) |
| --- | --- | --- | --- | --- |
| B1 | binds | binds | – | – |
| B2 | – | – | no binding | no binding |
